These results are taken from patent US20120172293A1 (Takeda / Millennium, published 2012).

Sequences and labels used below:
B1: Isobutanoyl-[Abu26, Cha27,28,36, His30, Aib31]-PYY(25-36) (peptide)
peptide: Isobutyryl-R[Abu][Cha][Cha]NH[Aib]TRQR[Cha]-NH2
SMILES: CC[C@H](NC(=O)[C@H](CCCNC(=N)N)NC(=O)C(C)C)C(=O)N[C@@H](CC1CCCCC1)C(=O)N[C@@H](CC1CCCCC1)C(=O)N[C@@H](CC(N)=O)C(=O)N[C@@H](Cc1c[nH]cn1)C(=O)NC(C)(C)C(=O)N[C@H](C(=O)N[C@@H](CCCNC(=N)N)C(=O)N[C@@H](CCC(N)=O)C(=O)N[C@@H](CCCNC(=N)N)C(=O)N[C@@H](CC1CCCCC1)C(N)=O)[C@@H](C)O
B2: Isobutanoyl-[Abu26, Gly27, Cha28,36, Aib31]-PYY(25-36) (peptide)
peptide: Isobutyryl-R[Abu]G[Cha]NL[Aib]TRQR[Cha]-NH2
SMILES: CC[C@H](NC(=O)[C@H](CCCNC(=N)N)NC(=O)C(C)C)C(=O)NCC(=O)N[C@@H](CC1CCCCC1)C(=O)N[C@@H](CC(N)=O)C(=O)N[C@@H](CC(C)C)C(=O)NC(C)(C)C(=O)N[C@H](C(=O)N[C@@H](CCCNC(=N)N)C(=O)N[C@@H](CCC(N)=O)C(=O)N[C@@H](CCCNC(=N)N)C(=O)N[C@@H](CC1CCCCC1)C(N)=O)[C@@H](C)O
B3: Isobutanoyl-[Abu26, Cha27,28,36, Ser30, Aib31]-PYY(25-36) (peptide)
peptide: Isobutyryl-R[Abu][Cha][Cha]NS[Aib]TRQR[Cha]-NH2
SMILES: CC[C@H](NC(=O)[C@H](CCCNC(=N)N)NC(=O)C(C)C)C(=O)N[C@@H](CC1CCCCC1)C(=O)N[C@@H](CC1CCCCC1)C(=O)N[C@@H](CC(N)=O)C(=O)N[C@@H](CO)C(=O)NC(C)(C)C(=O)N[C@H](C(=O)N[C@@H](CCCNC(=N)N)C(=O)N[C@@H](CCC(N)=O)C(=O)N[C@@H](CCCNC(=N)N)C(=O)N[C@@H](CC1CCCCC1)C(N)=O)[C@@H](C)O
B4: Isobutanoyl-[Abu26, Cha27,28,36, Gln30, Aib31]-PYY(25-36) (peptide)
peptide: Isobutyryl-R[Abu][Cha][Cha]NQ[Aib]TRQR[Cha]-NH2
SMILES: CC[C@H](NC(=O)[C@H](CCCNC(=N)N)NC(=O)C(C)C)C(=O)N[C@@H](CC1CCCCC1)C(=O)N[C@@H](CC1CCCCC1)C(=O)N[C@@H](CC(N)=O)C(=O)N[C@@H](CCC(N)=O)C(=O)NC(C)(C)C(=O)N[C@H](C(=O)N[C@@H](CCCNC(=N)N)C(=O)N[C@@H](CCC(N)=O)C(=O)N[C@@H](CCCNC(=N)N)C(=O)N[C@@H](CC1CCCCC1)C(N)=O)[C@@H](C)O
B5: [D-Ser23, Abu26, Cha27,28,36, Aib31]-PYY(23-36) (peptide)
peptide: [dS]LR[Abu][Cha][Cha]NL[Aib]TRQR[Cha]-NH2
modifications: N-terminus assumed
SMILES: CC[C@H](NC(=O)[C@H](CCCNC(=N)N)NC(=O)[C@H](CC(C)C)NC(=O)[C@H](N)CO)C(=O)N[C@@H](CC1CCCCC1)C(=O)N[C@@H](CC1CCCCC1)C(=O)N[C@@H](CC(N)=O)C(=O)N[C@@H](CC(C)C)C(=O)NC(C)(C)C(=O)N[C@H](C(=O)N[C@@H](CCCNC(=N)N)C(=O)N[C@@H](CCC(N)=O)C(=O)N[C@@H](CCCNC(=N)N)C(=O)N[C@@H](CC1CCCCC1)C(N)=O)[C@@H](C)O
B6: Ac-[D-Cha24, Abu26, Cha27,28,36, Aib31]-PYY(24-36) (peptide)
peptide: Ac-[dCha]R[Abu][Cha][Cha]NL[Aib]TRQR[Cha]-NH2
SMILES: CC[C@H](NC(=O)[C@H](CCCNC(=N)N)NC(=O)[C@@H](CC1CCCCC1)NC(C)=O)C(=O)N[C@@H](CC1CCCCC1)C(=O)N[C@@H](CC1CCCCC1)C(=O)N[C@@H](CC(N)=O)C(=O)N[C@@H](CC(C)C)C(=O)NC(C)(C)C(=O)N[C@H](C(=O)N[C@@H](CCCNC(=N)N)C(=O)N[C@@H](CCC(N)=O)C(=O)N[C@@H](CCCNC(=N)N)C(=O)N[C@@H](CC1CCCCC1)C(N)=O)[C@@H](C)O
B7: Isobutanoyl-[Abu26, Cha27,28,36, Gly(cPr)31]-PYY(25-36) (peptide)
peptide: Isobutyryl-R[Abu][Cha][Cha]NL[Gly(cPr)]TRQR[Cha]-NH2
SMILES: CC[C@H](NC(=O)[C@H](CCCNC(=N)N)NC(=O)C(C)C)C(=O)N[C@@H](CC1CCCCC1)C(=O)N[C@@H](CC1CCCCC1)C(=O)N[C@@H](CC(N)=O)C(=O)N[C@@H](CC(C)C)C(=O)N[C@H](C(=O)N[C@H](C(=O)N[C@@H](CCCNC(=N)N)C(=O)N[C@@H](CCC(N)=O)C(=O)N[C@@H](CCCNC(=N)N)C(=O)N[C@@H](CC1CCCCC1)C(N)=O)[C@@H](C)O)C1CC1
B8: Benzoyl-[Ser26, Cha27,28,36, Aib31]-PYY(25-36) (peptide)
peptide: Bz-RS[Cha][Cha]NL[Aib]TRQR[Cha]-NH2
SMILES: CC(C)C[C@H](NC(=O)[C@H](CC(N)=O)NC(=O)[C@H](CC1CCCCC1)NC(=O)[C@H](CC1CCCCC1)NC(=O)[C@H](CO)NC(=O)[C@H](CCCNC(=N)N)NC(=O)c1ccccc1)C(=O)NC(C)(C)C(=O)N[C@H](C(=O)N[C@@H](CCCNC(=N)N)C(=O)N[C@@H](CCC(N)=O)C(=O)N[C@@H](CCCNC(=N)N)C(=O)N[C@@H](CC1CCCCC1)C(N)=O)[C@@H](C)O
B9: Isobutanoyl-[Abu26, Cha27,28,36, Abu30, Aib31]-PYY(25-36) (peptide)
peptide: Isobutyryl-R[Abu][Cha][Cha]N[Abu][Aib]TRQR[Cha]-NH2
SMILES: CC[C@H](NC(=O)[C@H](CCCNC(=N)N)NC(=O)C(C)C)C(=O)N[C@@H](CC1CCCCC1)C(=O)N[C@@H](CC1CCCCC1)C(=O)N[C@@H](CC(N)=O)C(=O)N[C@@H](CC)C(=O)NC(C)(C)C(=O)N[C@H](C(=O)N[C@@H](CCCNC(=N)N)C(=O)N[C@@H](CCC(N)=O)C(=O)N[C@@H](CCCNC(=N)N)C(=O)N[C@@H](CC1CCCCC1)C(N)=O)[C@@H](C)O
B10: Isobutanoyl-[Abu26, Cha27,28, Aib31, Tyr(2F)36]-PYY(25-36) (peptide)
peptide: Isobutyryl-R[Abu][Cha][Cha]NL[Aib]TRQR[Tyr(2-F)]-NH2
SMILES: CC[C@H](NC(=O)[C@H](CCCNC(=N)N)NC(=O)C(C)C)C(=O)N[C@@H](CC1CCCCC1)C(=O)N[C@@H](CC1CCCCC1)C(=O)N[C@@H](CC(N)=O)C(=O)N[C@@H](CC(C)C)C(=O)NC(C)(C)C(=O)N[C@H](C(=O)N[C@@H](CCCNC(=N)N)C(=O)N[C@@H](CCC(N)=O)C(=O)N[C@@H](CCCNC(=N)N)C(=O)N[C@@H](Cc1ccc(O)cc1F)C(N)=O)[C@@H](C)O
B11: Isobutanoyl-[Abu26, Cha27,36, Gly(cPr)28, Aib31]-PYY(25-36) (peptide)
peptide: Isobutyryl-R[Abu][Cha][Gly(cPr)]NL[Aib]TRQR[Cha]-NH2
SMILES: CC[C@H](NC(=O)[C@H](CCCNC(=N)N)NC(=O)C(C)C)C(=O)N[C@@H](CC1CCCCC1)C(=O)N[C@H](C(=O)N[C@@H](CC(N)=O)C(=O)N[C@@H](CC(C)C)C(=O)NC(C)(C)C(=O)N[C@H](C(=O)N[C@@H](CCCNC(=N)N)C(=O)N[C@@H](CCC(N)=O)C(=O)N[C@@H](CCCNC(=N)N)C(=O)N[C@@H](CC1CCCCC1)C(N)=O)[C@@H](C)O)C1CC1
B12: Isobutanoyl-[Abu26,27, Cha28,36, Aib31]-PYY(25-36) (peptide)
peptide: Isobutyryl-R[Abu][Abu][Cha]NL[Aib]TRQR[Cha]-NH2
SMILES: CC[C@H](NC(=O)[C@H](CCCNC(=N)N)NC(=O)C(C)C)C(=O)N[C@@H](CC)C(=O)N[C@@H](CC1CCCCC1)C(=O)N[C@@H](CC(N)=O)C(=O)N[C@@H](CC(C)C)C(=O)NC(C)(C)C(=O)N[C@H](C(=O)N[C@@H](CCCNC(=N)N)C(=O)N[C@@H](CCC(N)=O)C(=O)N[C@@H](CCCNC(=N)N)C(=O)N[C@@H](CC1CCCCC1)C(N)=O)[C@@H](C)O
B13: Isobutanoyl-[Abu26, Cha27,28, Aib31, Tyr(3F)36]-PYY(25-36) (peptide)
peptide: Isobutyryl-R[Abu][Cha][Cha]NL[Aib]TRQR[Tyr(3-F)]-NH2
SMILES: CC[C@H](NC(=O)[C@H](CCCNC(=N)N)NC(=O)C(C)C)C(=O)N[C@@H](CC1CCCCC1)C(=O)N[C@@H](CC1CCCCC1)C(=O)N[C@@H](CC(N)=O)C(=O)N[C@@H](CC(C)C)C(=O)NC(C)(C)C(=O)N[C@H](C(=O)N[C@@H](CCCNC(=N)N)C(=O)N[C@@H](CCC(N)=O)C(=O)N[C@@H](CCCNC(=N)N)C(=O)N[C@@H](Cc1ccc(O)c(F)c1)C(N)=O)[C@@H](C)O

Non-standard residues stand in square brackets, D forms with d. No end group written: not given here. *: point of attachment. Tyr(3-F) = N[C@@H](Cc1ccc(O)c(F)c1)C(=O)O; Tyr(2-F) = N[C@@H](Cc1ccc(O)cc1F)C(=O)O; Cha = N[C@@H](CC1CCCCC1)C(=O)O; Gly(cPr) = N[C@H](C(=O)O)C1CC1; dCha = N[C@H](CC1CCCCC1)C(=O)O; Isobutyryl = CC(C)C(=O)*; Abu = CC[C@H](N)C(=O)O; Aib = CC(C)(N)C(=O)O; Bz = O=C(c1ccccc1)*

Chain of human Y2 receptor (human) (P49146 whole entry): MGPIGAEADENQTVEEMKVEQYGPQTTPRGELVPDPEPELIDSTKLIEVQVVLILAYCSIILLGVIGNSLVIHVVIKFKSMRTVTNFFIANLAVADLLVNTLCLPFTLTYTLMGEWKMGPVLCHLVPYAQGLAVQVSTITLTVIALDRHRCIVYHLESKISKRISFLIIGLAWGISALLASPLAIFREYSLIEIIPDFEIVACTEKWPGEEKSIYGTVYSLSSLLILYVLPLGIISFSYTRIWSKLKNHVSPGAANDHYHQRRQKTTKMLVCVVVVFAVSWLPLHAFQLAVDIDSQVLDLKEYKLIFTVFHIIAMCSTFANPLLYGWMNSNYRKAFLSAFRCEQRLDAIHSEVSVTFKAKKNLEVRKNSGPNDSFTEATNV

One experiment addresses human Y2 receptor (human) (UniProt P49146). Kind of experiment: cell-based or functional assay.
Consider B1, for which the GBA EC50 Ratio (vs PYY(3-36)), [35S]GTPγS was found to be 20.

In the case of B2, the GBA EC50 Ratio (vs PYY(3-36)), [35S]GTPγS stood at 49.

Regarding B3, the GBA EC50 Ratio (vs PYY(3-36)), [35S]GTPγS is 28.

Consider B4, for which the GBA EC50 Ratio (vs PYY(3-36)), [35S]GTPγS came out at 22.

Regarding B5, the GBA EC50 Ratio (vs PYY(3-36)), [35S]GTPγS came to 11.

For B6, the GBA EC50 Ratio (vs PYY(3-36)), [35S]GTPγS came to 13.

Regarding B7, the GBA EC50 Ratio (vs PYY(3-36)), [35S]GTPγS is 16.

Regarding B8, the GBA EC50 Ratio (vs PYY(3-36)), [35S]GTPγS was determined as 6.

Consider B9, for which the GBA EC50 Ratio (vs PYY(3-36)), [35S]GTPγS was determined as 21.

B10: the GBA EC50 Ratio (vs PYY(3-36)), [35S]GTPγS turned out to be 11.

In the case of B11, the GBA EC50 Ratio (vs PYY(3-36)), [35S]GTPγS came out at 41.

Turning to B12, the GBA EC50 Ratio (vs PYY(3-36)), [35S]GTPγS worked out at 37.

Take B13: the GBA EC50 Ratio (vs PYY(3-36)), [35S]GTPγS turned out to be 20.

For a further experiment the target is unchanged. The experiment is described as follows: RBA: [125I]-PYY displacement, hY2R/CHO membranes.
As for B1, the IC50 Ratio (vs PYY(3-36)) turned out to be 22.

With B2, the IC50 Ratio (vs PYY(3-36)) is 70.

Consider B3, for which the IC50 Ratio (vs PYY(3-36)) worked out at 26.

Consider B4, for which the IC50 Ratio (vs PYY(3-36)) worked out at 19.

B5: the IC50 Ratio (vs PYY(3-36)) turned out to be 15.

For the molecule B6, the IC50 Ratio (vs PYY(3-36)) turned out to be 15.

Regarding B7, the IC50 Ratio (vs PYY(3-36)) turned out to be 25.

With B8, the IC50 Ratio (vs PYY(3-36)) worked out at 13.

B9: the IC50 Ratio (vs PYY(3-36)) came to 20.

With B10, the IC50 Ratio (vs PYY(3-36)) is 19.

Take B11: the IC50 Ratio (vs PYY(3-36)) came out at 52.

As to B12, the IC50 Ratio (vs PYY(3-36)) came to 31.

Take B13: the IC50 Ratio (vs PYY(3-36)) turned out to be 26.
